We go through 27 molecules from patent US8357523B2, “Beta-glucosidase variant enzymes and related polynucleotides” (Codexis, Inc., priority 2009, dated 2013).

The chains are these.
B1: 34 (protein)
chain: STAIAQEGAAPAAILHPEKWPRPATQRLIDPAVEKRVDALLKQLSVEEKVGQVIQGDIGTITPEDLRKYPLGSILAGGNSGPNGDDRAPPKEWLDLADAFYRVSLEKRPGHTPIPVLFGIDAVHGHGNIGSATIFPHNIALGATHDPELLRRIGEVTAVEMAATGIDWTFAPALSVVRDDRWGRTYEGFSEDPEIVAAYSAAIVEGVQGKFGSKDFMAPGRSVASAKHFLADGGTDQGRDQGDARISEDELIRIHNAGYPPAIDAGVLTVMASFSSWQGIKHHGHKQLLTDVLKGQMGFNGFIVGDWNAHDQVPGCTKFNCPTSLIAGLDMYMAADSWKQLYENTLAQVKDGTIPMARLDDAVRRILRVKVLAGLFEKPAPKDRPGLPGLETLGSPEHRAVGREAVRKSLVLLKNDKGTLPLSPKARVLVAGDGADNIGKQSGGWTISWQGTGNRNDEFPGATSILGGIRDAVADAGGSVEFDVAGQYKTKPDVAIVVFGEEPYAEFQGDVETLEYQPDQKQDLALLKKLKDQGIPVVAVFLSGRPMWVNPELNASDAFVAAWLPGTEGGGVADVLFTDKAGKVQHDFAGKLSYSWPRTAAQTTVNRGDADYNPLFAYGYGLTYKDKSKVGTLPEESGVPAEARQNAGIYFRAGALRLPGRFL
B2: 42 (protein)
chain: B1 chain with S222A
B3: 35 (protein)
chain: B1 chain with A202K, S222I
B4: 46 (protein)
chain: B1 chain with S222I, L387R
B5: 54 (protein)
chain: B1 chain with S222I, L663Q
B6: 45 (protein)
chain: B1 chain with S222I, Q487N
B7: 49 (protein)
chain: B1 chain with S222I, Q487D
B8: 58 (protein)
chain: B1 chain with E155M, S222I
B9: 55 (protein)
chain: B1 chain with S222I, S225T
B10: 37 (protein)
chain: B1 chain with I195L, S222I
B11: 40 (protein)
chain: B1 chain with A173C, S222I
B12: 48 (protein)
chain: B1 chain with N79D, S222I
B13: 47 (protein)
chain: B1 chain with S222I, D475K
B14: 50 (protein)
chain: B1 chain with S222I, K629C
B15: 59 (protein)
chain: B1 chain with E155Q, S222I
B16: 39 (protein)
chain: B1 chain with A143Q, S222I
B17: 60 (protein)
chain: B1 chain with E155K, S222I
B18: 36 (protein)
chain: B1 chain with A143M, S222I
B19: 51 (protein)
chain: B1 chain with S222I, D519G
B20: 53 (protein)
chain: B1 chain with I153T, S222I
B21: 52 (protein)
chain: B1 chain with L141I, S222I
B22: 38 (protein)
chain: B1 chain with A173S, S222I
B23: 43 (protein)
chain: B1 chain with S222I, G467Q
B24: 57 (protein)
chain: B1 chain with S222C
B25: 44 (protein)
chain: B1 chain with S222I, F482Y
B26: 41 (protein)
chain: B1 chain with S222I, S225C
B27: 56 (protein)
chain: B1 chain with S222I, S225F

Positions count from the first letter of the chain named.

A short description of this data set: High throughput cellobiose assay: fold improvement in cellobiase activity of CelA variants over a control enzyme (Tables 2A-2D, 3, 5, 6, 7). It is filed as biochemical. The following applies: 3.3 g/l cellobiose, 50° C. and pH 6.5; compared to native CelA (SEQ ID NO: 4). The procedure: β-glucosidase activity was also determined using a cellobiose assay, which used cellobiose as substrate. In a total volume of 100 μL, 25 μL clear media supernatant containing CelA enzyme was added to 10 g/L cellobiose (Fluka Cat. No. 22150, Sigma-Aldrich, Inc., St. Louis, Mo.) in 100 mM sodium phosphate buffer (pH 6-7) or sodium acetate buffer (pH 5-5.5). The reaction was incubated at 45-70° C. for an appropriate time (25 minutes to overnight depending on the enzyme concentration) while shaking. Glucose production was determined using an enzymatic glucose assay (K-GLUC, Megazyme, Ireland). 10 μl of each reaction was added to 190 μl GOPOD reagent (supplied as part of the K-GLUC assay kit). The reaction was incubated at 45° C. for 20 minutes and the absorbance of the solution was measured at 510 nm. The GOPOD reagent contains 50 mM Potassium phosphate buffer pH7.4, 0.011M p-hydroxybenzoic acid, 0.008% w/v sodium azide, glucose oxidase (>12,000 U/L), peroxidase (>650 U/L) and 80 mg/L 4-aminoantipyrine. The glucose oxidase enzyme in the reagent reacts with any glucose present in the sample and produces hydrogen peroxide which then reacts with the 4-aminoantipyrine to produce a quinoneimine dye in quantities proportionate with the amount of glucose present and can be measured spectrophotometrically at 510 nm. Detectable β-glucosidase activity was observed under high throughput screening conditions (i.e., pH 7, 50° C.).
Plasmid libraries containing variant CelA genes were transformed into B. megaterium and plated on Luria-Bertani (LB) agar plates containing 3 μg/mL tetracycline with a DM3 regeneration media overlay (400 mM sodium succinate dibasic, pH 7.3, 0.5% casamino acids, 0.5% yeast extract, 0.4% K2HPO4, 0.2% KH2PO4, 20 mM MgCl2, 0.5% glucose and 0.2% BSA). After incubation for at least 18 hours at 30° C., colonies were picked using a Q-bot® robotic colony picker (Genetix USA, Inc., Beaverton, Oreg.) into shallow, 96-well well microtiter plates containing 180 μL, LB and 10 μg/mL tetracycline. Cells were grown overnight at 37° C. with shaking at 200 rpm and 85% humidity. 10 μL of this culture was then transferred into 96-well microtiter plates (deep well) containing 390 μL A5-glucose-xylose medium and 10 μg/mL tetracycline as described in example 2. The plates were then incubated at 37° C. with shaking at 250 rpm and 85% humidity overnight (˜18-24 hours). The deep plates were centrifuged at 4000 rpm for 15 minutes and the clear media supernatant containing the secreted CelA enzyme was used for the high throughput pNPG or cellobiose assay of Example 5.
The CelA libraries were screened in high throughput using the cellobiose assay of Example 5 (Substrate: cellobiose; pH: 5-7; temperature: 45-72° C.; time: 2-24 hrs) for the identification of improved variants.
In shallow, 96-well microtiter plates 25 μL of media supernatant was added to 75 μL of […] cellobiose in 150 mM sodium acetate buffer pH 5-5.5 or 150 mM sodium phosphate buffer pH6-7. After sealing with aluminum/polypropylene laminate heat seal tape (Velocity 11 (Menlo Park, Calif.), Cat#06643-001), the plates were shaken at 45-65° C. for up to 24 hrs. The plates were centrifuged for 5 minutes at 4000 rpm. In shallow well clear microtiter plates, 10 μL of the reaction mixture was added to 190 μL of GOPOD reagent (as in example 5B) per well. The solutions were incubated at 45° C. for 1 hour and absorbance was measured at 510 nm for the identification of active CelA variants.
Improved CelA variants were identified from the high throughput screening of various CelA variant libraries as described in Example 7, using the cellobiose assay of Example 5 using 3.3 g/l cellobiose at temperatures from 50°-55° C. at a pH in the range of 5.3-6.5. Tables 2A, 2B, 2C, and 2D and Table 3 depict the improvement in activities of CelA variants encompassed by the invention. The assay conditions are indicated in each table. […]
Consider B1, for which the “Fold improvement over wildtype CelA” value is listed as “+ (+ = 1.1 to 2.0 fold improvement over native CelA (SEQ ID NO: 4))”.
As to B2, the “Fold improvement over wildtype CelA” value is listed as “+ (+ = 1.1 to 2.0 fold improvement over native CelA (SEQ ID NO: 4))”.
On to B3, for which the “Fold improvement over wildtype CelA” value is listed as “+ (+ = 1.1 to 2.0 fold improvement over native CelA (SEQ ID NO: 4))”.
Consider B4, for which the “Fold improvement over wildtype CelA” value was “+ (+ = 1.1 to 2.0 fold improvement over native CelA (SEQ ID NO: 4))”.
Take B5: the “Fold improvement over wildtype CelA” value is reported as “+ (+ = 1.1 to 2.0 fold improvement over native CelA (SEQ ID NO: 4))”.
For the molecule B6, the “Fold improvement over wildtype CelA” value is “+ (+ = 1.1 to 2.0 fold improvement over native CelA (SEQ ID NO: 4))”.
For B7, the “Fold improvement over wildtype CelA” value was “+ (+ = 1.1 to 2.0 fold improvement over native CelA (SEQ ID NO: 4))”.
For the molecule B8, the “Fold improvement over wildtype CelA” value is listed as “+ (+ = 1.1 to 2.0 fold improvement over native CelA (SEQ ID NO: 4))”.
For B9, the “Fold improvement over wildtype CelA” value is on record as “+ (+ = 1.1 to 2.0 fold improvement over native CelA (SEQ ID NO: 4))”.
In the case of B10, the “Fold improvement over wildtype CelA” value is “+ (+ = 1.1 to 2.0 fold improvement over native CelA (SEQ ID NO: 4))”.
In the case of B11, the “Fold improvement over wildtype CelA” value is given as “++ (++ = 2.1 to 2.6 fold improvement over native CelA (SEQ ID NO: 4))”.
Consider B12, for which the “Fold improvement over wildtype CelA” value is given as “++ (++ = 2.1 to 2.6 fold improvement over native CelA (SEQ ID NO: 4))”.
In the case of B13 it was “+ (+ = 1.1 to 2.0 fold improvement over native CelA (SEQ ID NO: 4))”; in that of B14, “+ (+ = 1.1 to 2.0 fold improvement over native CelA (SEQ ID NO: 4))”.
Turning to B15, the “Fold improvement over wildtype CelA” value is on record as “+ (+ = 1.1 to 2.0 fold improvement over native CelA (SEQ ID NO: 4))”.
As for B16, the “Fold improvement over wildtype CelA” value is reported as “+ (+ = 1.1 to 2.0 fold improvement over native CelA (SEQ ID NO: 4))”.
Consider B17, for which the “Fold improvement over wildtype CelA” value was “+ (+ = 1.1 to 2.0 fold improvement over native CelA (SEQ ID NO: 4))”.
Consider B18, for which the “Fold improvement over wildtype CelA” value was “+ (+ = 1.1 to 2.0 fold improvement over native CelA (SEQ ID NO: 4))”.
Take B19: the “Fold improvement over wildtype CelA” value was “+ (+ = 1.1 to 2.0 fold improvement over native CelA (SEQ ID NO: 4))”.
In the case of B20 it was “+ (+ = 1.1 to 2.0 fold improvement over native CelA (SEQ ID NO: 4))”; in that of B21, “+ (+ = 1.1 to 2.0 fold improvement over native CelA (SEQ ID NO: 4))”.
As for B22, the “Fold improvement over wildtype CelA” value is reported as “+ (+ = 1.1 to 2.0 fold improvement over native CelA (SEQ ID NO: 4))”.
On to B23, for which the “Fold improvement over wildtype CelA” value was “+ (+ = 1.1 to 2.0 fold improvement over native CelA (SEQ ID NO: 4))”.
Consider B24, for which the “Fold improvement over wildtype CelA” value is given as “+ (+ = 1.1 to 2.0 fold improvement over native CelA (SEQ ID NO: 4))”.
In the case of B25 it was “+ (+ = 1.1 to 2.0 fold improvement over native CelA (SEQ ID NO: 4))”; in that of B26, “++ (++ = 2.1 to 2.6 fold improvement over native CelA (SEQ ID NO: 4))”.
To B27 belongs “+ (+ = 1.1 to 2.0 fold improvement over native CelA (SEQ ID NO: 4))”.
